PMC12325741 (2025)
Where two headings read alike, the source gives them in different places.

T1: CK19 (ligand protein of the Biacore assay) (UniProt P08727 1-400)
T1 chain: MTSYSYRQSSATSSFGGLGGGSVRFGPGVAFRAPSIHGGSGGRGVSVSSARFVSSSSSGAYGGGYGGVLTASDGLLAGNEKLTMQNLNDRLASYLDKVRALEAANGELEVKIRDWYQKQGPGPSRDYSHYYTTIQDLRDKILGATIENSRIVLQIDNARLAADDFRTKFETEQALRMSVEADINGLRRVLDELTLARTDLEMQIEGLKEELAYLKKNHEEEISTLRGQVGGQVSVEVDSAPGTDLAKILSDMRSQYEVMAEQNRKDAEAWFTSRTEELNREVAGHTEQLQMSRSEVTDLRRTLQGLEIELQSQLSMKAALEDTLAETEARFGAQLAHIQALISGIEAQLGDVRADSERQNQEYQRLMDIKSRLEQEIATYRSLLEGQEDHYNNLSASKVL


Columns and labels:
Assay in all cases: SPR
[1] = target: T1, CK19 (ligand protein of the Biacore …)
[2] = target: T1, CK19 (ligand protein of the Biacore …)
[3] = target: T1, CK19 (ligand protein of the Biacore …)
[4] = target: T1, CK19 (ligand protein of the Biacore …)

Row | Kd [1] [nM] | koff [2] [s⁻¹] | koff [3] [s⁻¹] | Kd [4] [nM] | Binder
1 | 214 | 0.0117 |  |  | MANF (analyte of the Biacore assay) (natural protein) LRPGDCEVCISYLGRFYQDLKDRDVTFSPATIENELIKFCREARGKENRLCYYIGATDDAATKIINEVSKPLAHHIPVEKICEKLKKKDSQICELKYDKQIDLSTVDLKKLRVKELKKILDDWGETCKGCAEKSDYIRKINELMPKYAPKAASARTDL
2 |  |  | 0.0854 | 635 | NICD2-His (domain or fragment) VIMAKRKRKHGSLWLPEGFTLRRDASNHKRREPVGQDAVGLKNLSVQVSEANLIGTGTSEHWVDDEGPQPKKVKAEDEALLSEEDDPIDRRPWTQQHLEAADIRRTPSLALTPPQAEQEVDVLDVNVRGPDGCTPLMLASLRGGSSDLSDEDEDAEDSSANIITDLVYQGASLQAQTDRTGEMALHLAARYSRADAAKRLLDAGADANAQDNMGRCPLHAAVAADAQGVFQILIRNRVTDLDARMNDGTTPLILAARLAVEGMVAELINCQADVNAVDDHGKSALHWAAAVNNVEATLLLLKNGANRDMQDNKEETPLFLAAREGSYEAAKILLDHFANRDITDHMDRLPRDVARDRMHHDIVRLLDEYNVTPSPPGTVLTSALSPVICGPNRSFLSLKHTPMGKKSRRPSAKSTMPTSLPNLAKEAKDAKGSRRKKSLSEKVQLSESSVTLSPVDSLESPHTYVSDTTSSPMITSPGILQASPNPMLATAAPPAPVHAQHALSFSNLHEMQPLAHGASTVLPSVSQLLSHHHIVSPGSGSAGSLSRLHPVPVPADWMNRMEVNETQYNEMFGMVLAPAEGTHPGIAPQSRPPEGKHITTPREPLPPIVTFQLIPKGSIAQPAGAPQPQSTCPPAVAGPLPTMYQIPEMARLPSVAFPTAMMPQQDGQVAQTILPAYHPFPASVGKYPTPPSQHSYASSNAAERTPSHSGHLQGEHPYLTPSPESPDQWSSSSPHSASDWSDVTTSPTPGGAGGGQRGPGTHMSEPPHNNMQVYA
